From patent publication US20050025764A1 (published 2005)
Positions count from the first letter of the chain named. Values belong to the molecule of their own block, whether it stands above or below them.

What was measured:
human CD20 (human) = human CD20 (human) (UniProt P11836); experiment: fixed Ramos cell ELISA, IgG, on-rate format: 5 min IgG step and 5 min second antibody step, goat anti-human IgG-HRP, OD 450
human CD20 [1] = target: T1, human CD20 (human, UniProt P11836 1-297); experiment: fixed Ramos cell ELISA, Fab 1 h, anti-His6 peroxidase, OD 450 (overall binding)
T1 sequence (looked up): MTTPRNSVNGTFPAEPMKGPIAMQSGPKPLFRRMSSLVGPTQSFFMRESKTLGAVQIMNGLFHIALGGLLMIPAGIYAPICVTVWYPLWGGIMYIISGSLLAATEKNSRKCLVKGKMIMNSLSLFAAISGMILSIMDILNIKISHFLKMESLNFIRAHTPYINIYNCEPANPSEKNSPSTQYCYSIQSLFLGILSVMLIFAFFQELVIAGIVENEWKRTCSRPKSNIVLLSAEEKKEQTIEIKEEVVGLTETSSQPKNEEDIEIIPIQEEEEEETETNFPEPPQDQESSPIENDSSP
Procedure: (§1) Ramos cells (ATCC) were grown in RPMI 1640 containing 10% heat inactivated Fetal Bovine Serum. Fifty microliters of Ramos cells (2-4×10⁶/ml), were pipetted into each well of a 96 well Poly-D-Lysine coated plate (BIOCAT Becton Dickinson Labware) and incubated at 37620 C., 5% CO₂ for 18 hours. Media was gently aspirated and […] of aqueous buffered zinc formalin (Anatech, Ltd.) was added to each well for 15 minutes at room temperature. Z-fix was removed and the plate was washed with phosphate-buffered saline (PBS) containing 0.05% Tween 20. The plate was blocked for 1 hour with 1% bovine serum albumin (BSA) in PBS. Dilutions of Fab or IgG were incubated with the fixed and blocked Ramos cells for 1 hour at room temperature. The plate was washed 3× with PBS 0.05% Tween […] of anti-His6 Peroxidase Mouse Monoclonal Antibody (Roche Diagnostics Corporation) at a 1:500 dilution were added to the wells and incubated 1 hour at room temperature. The plate was washed as above and developed with tetramethyl benzidine, and the reaction was stopped with 5N H₂SO₄. The plate absorbance was read at OD 450 nm. Dilutions of Fab and conjugate were in 1% BSA/PBS.

human CD20 [2] = target: T1, human CD20; experiment: fixed Ramos cell ELISA, off-rate format: overnight incubation in PBS/BSA after the Fab step, anti-His6 peroxidase, OD 450
Procedure: as §1
(§2) IgG assays were performed similarly except IgG bound was detected with goat anti-human IgG-HRP. To compare antibody off-rate, after incubation with Fab or IgG the plates were incubated over night in PBS/BSA, before proceeding with the second antibody step. To compare antibody on-rate, incubation steps for Fab/IgG binding and with the second antibody were both of 5 minutes duration.

human CD20 [3] = target: T1, human CD20; experiment: fixed Ramos cell ELISA, OD 450 nm
human CD20 [4] = target: T1, human CD20; experiment: IgG binding to SKW 6.4 B lymphoma cells, free antibody by ELISA, KinExA equilibrium software
Procedure: (§3) SKW 6.4 cells were grown in DMEM media supplemented with 10% FCS and harvested at 5-10×10⁵ cells per ml. […] For human peripheral blood B cells, fresh CD19 positively sorted B cells were obtained from Allcells. These cells were washed two times in PBS with 1% BSA and resuspended at a concentration of 8×10⁷/ml.
(§4) Twelve, 3 fold serial dilutions were then made and 100ul of each dilution placed in a 96 well plate. To each dilution […] of antibody at 100 ng/ml was added and the plate incubated at 37620 C., 5% CO₂ for 4 hours. Each sample was then filtered with a 96 well 1 micron filter (Millipore) to remove the cells and bound antibody. Free antibody in solution was then quantified using an ELISA. Briefly, free IgG was captured in a 96 well plate coated with 1 mg/ml of anti-human kappa antibody (Southern Biotechnology) and detected using an anti-human Fc antibody coupled with HRP (Southern Biotechnology). The plate was developed using Fast TMB substrate (Pierce) and read at 450 nm.
(§5) The Kd of the antibody was then determined using the KinExA equilibrium software for an unknown antigen concentration. The OD450 value for each serial dilution was fitted with an estimated antigen concentration and the actual antibody concentration. The Kd and actual antigen concentration were then calculated.

human CD20 [5] = target: T1, human CD20; experiment: IgG binding to SKW 6.4 cells over time, free antibody by ELISA, direct kinetics KinExA software
Procedure: SKW 6.4 cells were grown in DMEM media supplemented with 10% FCS and harvested at 5-10×10⁵ cells per ml. […] An equal volume of antibody at 100 ng/ml in PBS with 1% BSA at 37620 C. was then added to the cells and the timing for the experiment started. At time intervals from 60 seconds to 10800 seconds a sample of the antibody cell solution was sampled and filtered to remove cells and bound antibody. Free antibody remaining at each time point was then quantified using the ELISA described above.
The kinetics for the antibody cell reaction was calculated using the direct kinetics KinExA software. The OD450 value for each time point was fitted using the previously calculated Kd and antigen concentration and the Kon and Koff for the reaction calculated.

human CD20 [6] = target: T1, human CD20; experiment: IgG binding to SKW 6.4 cells, KinExA equilibrium software
Procedure: as §3, §4, §5

human CD20 [7] = target: T1, human CD20; experiment: cell-based or functional assay
human CD20 [8] = target: T1, human CD20; experiment: IgG binding to primary human peripheral blood B cells (CD19 sorted), KinExA equilibrium software
Procedure: as §3, §4, §5

human CD20 [9] = target: T1, human CD20; experiment: fixed Ramos cell ELISA, IgG, on-rate format: 5 min IgG step and 5 min second antibody step, goat anti-human IgG-HRP, OD 450
Procedure: as §1, §2

human CD20 [10] = target: T1, human CD20; experiment: fixed Ramos cell ELISA, on-rate format: 5 min Fab step and 5 min second antibody step, anti-His6 peroxidase, OD 450
Procedure: as §1
IgG assays were performed similarly except IgG bound was detected with goat anti-human IgG-HRP. […]

Molecule: C2B8 Fab
- EC50 (read off the curve) (human CD20 [1]): 0.06 µg/mL

B1: AME 4H5 Fab (Fab, V domains shown)
VH: QVQLVQSGAEVKKPGASVKVSCKASGYTFTSYNMHWVRQAPGQGLEWMGAIYPGNGDTSYNQKFKWRVTMTRDTSTSTVYMELSSLRSEDTAVYYCARSTYYGGDWQFDQWGKGTTVTVSS
VL: DIQMTQSPSSLSASVGDRVTITCRASSSVHYIHWYQQKPGKVPKLLIYATSNLASGVPSRFSGSGSGTDFTLTISSLQPEDVATYYCQQWTFNPPTFGGGTKVEIK
notes: Fab, His-tagged (anti-His6 detection); constant regions and tag not given
- EC50 (read off the curve) (human CD20 [1]): ~0.06 µg/mL
- EC50 (read off the curve) (human CD20 [2]): ~0.1 µg/mL

B2: AME 4H5 IgG (antibody, V domains shown)
VH: B1 VH
VL: B1 VL
notes: Full IgG
- maximum OD relative to the C2B8 antibody (human CD20 [3]): ~1.5 times

B3: AME 5 IgG (antibody, V domains shown)
VH: B1 VH with Q110E
VL: B1 VL with N52G, Q89T
notes: Full IgG
- Kd (human CD20 [4]): 145 pM
- koff (human CD20 [5]): 7.9e-05 s⁻¹
- kon (human CD20 [5]): 580000 M⁻¹ s⁻¹
- fold enhancement of Kd compared to the C2B8 antibody (human CD20 [6]): 10 fold

B5: AME 1D10 IgG (antibody, V domains shown)
VH: EVQLVQSGAEVKKPGESLKISCKGSGYTFTSYNMHWVRQMPGKGLEWMGAIYPLNGDTSYNQKFKLQVTISADKSISTAYLQWSSLKASDTAMYYCARSTYVGGDWTFDVWGKGTTVTVSS
VL: EIVLTQSPGTLSLSPGERATLSCRASSSVPYIHWYQQKPGQAPRLLIYATSNLASGIPDRFSGSGSGTDFTLTISRLEPEDFAVYYCQQWLSNPPTFGQGTKLEIK
notes: Full IgG
- EC50 (read off the curve) (human CD20 [9]): ~0.4 µg/mL
- maximum OD relative to the C2B8 antibody (human CD20 [3]): ~1.5 times

B6: AME 1D10 Fab (Fab, V domains shown)
VH: B5 VH
VL: B5 VL
notes: as for B1
- EC50 (read off the curve) (human CD20 [1]): ~0.06 µg/mL
- EC50 (read off the curve) (human CD20 [2]): ~0.2 µg/mL

B7: AME 2C2 IgG (antibody, V domains shown)
VH: B5 VH
VL: B5 VL with P30S
notes: constant regions not spelled out
- EC50 (read off the curve) (human CD20 [9]): ~0.5 µg/mL

Further lines, results first:

- EC50 (read off the curve) (human CD20 (human)): 1 µg/mL
Molecule: commercial RITUXAN (Oncology Supply Co.) (antibody)

- Kd (human CD20 [4]): 97 pM
- koff (human CD20 [5]): 7.7e-05 s⁻¹
- kon (human CD20 [5]): 780000 M⁻¹ s⁻¹
- fold enhancement of Kd compared to the C2B8 antibody (human CD20 [6]): 10 fold
- ADCC, Estimated EC50s, ug/ml (Wil-2 cells as target) (human CD20 [7]): 0.0063 µg/mL
- maximum OD relative to the C2B8 antibody (human CD20 [3]): ~1.5 times
- Kd (human CD20 [8]): 113 pM
B4: AME 33 IgG (antibody, V domains shown)
VH: B5 VH with Y27R, N55T, F64S, T107Q
VL: EIVLTQSPGTLSLSPGERATLSCRASSSVPYIHWYQQKPGQAPRLLIYATSALASGIPDRFSGSGSGTDFTLTISRLEPEDFAVYYCQQWLSNPPTFGQGTKLEIKR
notes: Full IgG; also called AME 33 antibody

- EC50 (read off the curve) (human CD20 [10]): ~0.5 µg/mL
- EC50 (read off the curve) (human CD20 [1]): ~0.08 µg/mL
B8: AME 33 Fab (Fab, V domains shown)
VH: B5 VH with Y27R, N55T, F64S, T107Q
VL: B5 VL with N52A
notes: Fab

- EC50 (read off the curve) (human CD20 [9]): ~0.3 µg/mL
- maximum OD relative to the C2B8 antibody (human CD20 [3]): ~1.5 times
B9: AME 15 IgG (antibody, V domains shown)
VH: B5 VH with Q62R, F64S
VL: B5 VL
notes: Full IgG

- EC50 (read off the curve) (human CD20 [10]): ~0.3 µg/mL
- EC50 (read off the curve) (human CD20 [1]): ~0.06 µg/mL
B10: AME 18 Fab (Fab, V domains shown)
VH: B5 VH with Y27R, N55T, T100Y
VL: B5 VL with N52A
notes: as for B1

- EC50 (read off the curve) (human CD20 [1]): ~0.05 µg/mL
- EC50 (read off the curve) (human CD20 [2]): ~0.2 µg/mL
B11: AME 15 Fab (Fab, V domains shown)
VH: B5 VH with Q62R, F64S
VL: B5 VL
notes: as for B1

- binding result (human CD20 [1]): no binding (tested: about 7 µg/ml)
B12: 21E1 Hum (Fab, V domains shown)
VH: B5 VH with L54G, L66G, V102Y, T107S
VL: B5 VL with P30S
notes: the panels are titled Fab; also called AME 21E1 Hum; AME 21E1 Hum Fab

- maximum OD relative to the C2B8 antibody (human CD20 [3]): ~1.5 times
B13: AME 18 IgG (antibody, V domains shown)
VH: B5 VH with Y27R, N55T, T100Y
VL: B5 VL with N52A
notes: Full IgG
